Target: spike protein of SARS-CoV (SARS-CoV, UniProt P59594 14-1255)
Experiment: cell-based or functional assay

B1: 4-66 antibody (antibody, V domains shown)
VH: EVQLVESGGGLVQPGGSLRLSCAASGIIVSRNYMTWVRQAPGKGLEWVSVIYSGGTTYYADSVKGRFTTSRDDSKNTLYLQMNSLRGDDTAVYYCARDPPHRRGSYWGQGTLVTVSS
VL: DILMTQSPSSLSASVGDRVTITCQASQDINKYLNWYQQKPGKAPKLLIYDASNLETGVPSRFSGSGSGTDFSFTISSLQPEDVATYYCQQSDNLPPTFGQGTNVEIK
- IC50, neutralization: 0.55 µg/mL

Reference: US20260139035A1 (NATIONAL UNIVERSITY CORPORATION KUMAMOTO UNIVERSITY, published 2026)
